# Measured values reported in FireProtDB (doi:10.1021/bi0118052).
# Several values for one entry are separate records, joined by “and”; a condition that tells them apart may be missing. Equal entries are not always repeated.
# B1: Protein S100-B, P04271 (parent)
# chain: MSELEKAMVALIDVFHQYSGREGDKHKLKKSELKELINNELSHFLEEIKEQEVVDKVMETLDNDGDGECDFQEFMAFVAMVTTACHEFFEHE
# Variants of: B1
# Details: Homo sapiens; pH 7.2; 25 °C; GdnHCl; CD; MOPS 10 mM; KCl 50 mM; reversible: yes; structure 1UWO; whole UniProt chain shown
Variant,ddG of mutation (higher = less stable),denaturant m value,denaturant midpoint (higher = more stable),unfolding free energy
F15A,7.53 kcal/mol and 3.42 kcal/mol,1.94 kcal/mol/M and 1.08 kcal/mol/M,1.8 M and 2.3 M,9.78 kcal/mol
L4S,–,3.3 kcal/mol/M and 2.29 kcal/mol/M,2.4 M and 3.2 M,14.5 kcal/mol
L4A,–,3.49 kcal/mol/M and 1.58 kcal/mol/M,2.7 M and 3.7 M,16.1 kcal/mol
I12A,–,2.75 kcal/mol/M and 1.43 kcal/mol/M,2.3 M and 4.2 M,13.2 kcal/mol
L4A I12A,–,2.84 kcal/mol/M and 1.77 kcal/mol/M,2.1 M and 3.3 M,12.2 kcal/mol
L4A F15A,8.94 kcal/mol and 5.16 kcal/mol,1.67 kcal/mol/M and 0.81 kcal/mol/M,1.3 M and 1.7 M,8.39 kcal/mol
M8A,0.65 kcal/mol,1.36 kcal/mol/M,3.6 M,–
